A word on the stoichiometry N: it is the number of molecules, sites or subunits per partner or assembly.

From paper PMC4422123, “The peroxisomal protein import machinery displays a preference for monomeric substrates” (Open Biology, 2015) come the findings set out here.

The target in series [1] is acyl-CoA oxidase 1 (ACOX1), untagged, in vitro synthesized (mouse) (UniProt Q9R0H0). Briefly: sucrose gradient centrifugation; 35S-labelled protein synthesized (30 min ACOX1, 45 min UOX) and chased for 4 h with cycloheximide without PEX5; 5-30% sucrose in buffer B, 39 000 r.p.m., 29 h, 4°C.
Series [2] deals with the molecule itself. Described as above.

As to “acyl-CoA oxidase 1 (ACOX1), untagged, in vitro synthesized (from UniProt Q9R0H0 1-661) (natural protein)”, the stoichiometry N in series [1] amounted to 2.

B1: urate oxidase (UOX), untagged, in vitro synthesized (natural protein, mouse, UniProt P25688 1-303, looked up)
chain: MAHYHDNYGKNDEVEFVRTGYGKDMVKVLHIQRDGKYHSIKEVATSVQLTLRSKKDYLHGDNSDIIPTDTIKNTVHVLAKLRGIRNIETFAMNICEHFLSSFNHVTRAHVYVEEVPWKRFEKNGIKHVHAFIHTPTGTHFCEVEQMRNGPPVIHSGIKDLKVLKTTQSGFEGFLKDQFTTLPEVKDRCFATQVYCKWRYQRRDVDFEAIWGAVRDIVLQKFAGPYDKGEYSPSVQKTLYDIQVLSLSQLPEIEDMEISLPNIHYFNIDMSKMGLINKEEVLLPLDNPYGKITGTVKRKLPSRL
modifications: 35S-methionine labelled
notes: mouse urate oxidase, cDNA amplified with primers from the start codon to the stop codon, in pGEM4; also called mUOX; monomeric UOX; source: in vitro translated (rabbit reticulocyte lysate, TnT T7 QuickCoupled kit), not purified
In the case of B1, the “stoichiometry N” value in series [2] was 4.
